Source: PMC5814800

Each substance was assayed against T25-ϕC31 gp3 (wild type) fusion protein (assay: bacterial two-hybrid (B2H) β-galactosidase assay). Details: parent: est. 0.14; read off a plot.

| Substance | response (ΔOD420/min/ml) |
| --- | --- |
| wild-type ϕC31 integrase fused to T18 (Int-T18 fusion, pEY111) (from UniProt Q9T221) I420A; I582T | -0.009 |
| wild-type ϕC31 integrase fused to T18 (Int-T18 fusion, pEY111) (from UniProt Q9T221) I420A; I582V | -0.016 |
| wild-type ϕC31 integrase fused to T18 (Int-T18 fusion, pEY111) (from UniProt Q9T221) I420V | 0.13 |
| wild-type ϕC31 integrase fused to T18 (Int-T18 fusion, pEY111) (from UniProt Q9T221) I582A | 0.027 |
| wild-type ϕC31 integrase fused to T18 (Int-T18 fusion, pEY111) (from UniProt Q9T221) I582G | 0.037 |
| wild-type ϕC31 integrase fused to T18 (Int-T18 fusion, pEY111) (from UniProt Q9T221) I582L | 0.15 |
| wild-type ϕC31 integrase fused to T18 (Int-T18 fusion, pEY111) (from UniProt Q9T221) I582T | 0.068 |

Now from value to substance:

| response (ΔOD420/min/ml) | Substance |
| --- | --- |
| 0.019 | wild-type ϕC31 integrase fused to T18 (Int-T18 fusion, pEY111) (from UniProt Q9T221) I420A |
| 0.021 | wild-type ϕC31 integrase fused to T18 (Int-T18 fusion, pEY111) (from UniProt Q9T221) I420V; I582V |
| 0.1 | wild-type ϕC31 integrase fused to T18 (Int-T18 fusion, pEY111) (from UniProt Q9T221) I582V |
| 0.023 | wild-type ϕC31 integrase fused to T18 (Int-T18 fusion, pEY111) (from UniProt Q9T221) W526A |
| 0.21 | wild-type ϕC31 integrase fused to T18 (Int-T18 fusion, pEY111) (from UniProt Q9T221) W526F |
| 0.008 | wild-type ϕC31 integrase fused to T18 (Int-T18 fusion, pEY111) (from UniProt Q9T221) W526R |
